Data as given in US20170058297A1.

What was measured:
[1] = biological target: Cre-B2 (P1 Bacteriophage) (UniProt P06956); test: cell-based or functional assay
[2] = biological target: Cre-A3 (P1 Bacteriophage) (UniProt P06956); test: cell-based or functional assay
[3] = biological target: Cre-B3 (P1 Bacteriophage) (UniProt P06956); test: cell-based or functional assay
Cre-B2 = biological target: T1, Cre-B2
T1 chain: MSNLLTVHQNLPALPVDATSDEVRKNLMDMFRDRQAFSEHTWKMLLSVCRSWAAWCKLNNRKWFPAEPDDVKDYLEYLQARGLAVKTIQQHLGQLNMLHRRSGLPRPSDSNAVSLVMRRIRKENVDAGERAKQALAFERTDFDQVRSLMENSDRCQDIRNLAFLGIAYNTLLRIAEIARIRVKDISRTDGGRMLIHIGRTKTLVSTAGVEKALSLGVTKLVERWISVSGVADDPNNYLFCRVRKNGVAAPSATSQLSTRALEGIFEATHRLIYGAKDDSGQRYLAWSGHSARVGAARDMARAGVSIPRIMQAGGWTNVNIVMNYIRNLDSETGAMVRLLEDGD

[4] = biological target: Cre-A1 (P1 Bacteriophage) (UniProt P06956); test: cell-based or functional assay
[5] = biological target: Cre-B1 (P1 Bacteriophage) (UniProt P06956); test: cell-based or functional assay
Cre-B1 = biological target: T2, Cre-B1
T2 chain: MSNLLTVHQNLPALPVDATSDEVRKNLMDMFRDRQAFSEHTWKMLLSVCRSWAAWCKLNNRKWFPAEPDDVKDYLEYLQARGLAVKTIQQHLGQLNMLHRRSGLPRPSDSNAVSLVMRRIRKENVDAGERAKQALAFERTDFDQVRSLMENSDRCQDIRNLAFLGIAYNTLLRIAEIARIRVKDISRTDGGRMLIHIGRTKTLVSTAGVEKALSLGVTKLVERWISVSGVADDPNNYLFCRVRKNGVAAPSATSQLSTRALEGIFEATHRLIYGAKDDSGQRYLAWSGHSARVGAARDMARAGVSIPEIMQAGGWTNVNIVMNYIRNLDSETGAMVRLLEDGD

B1: Cre-A3 (protein)
chain: MSNLLTVHQNLPALPVDATSDEVRRNLMRMFELRRAFSEHTWKMLLSVCRSWAAWCKLNNRKWFPAEPEDVRDYLLYLQARGLAVKTIQQHLGQLNMLHRRSGLPRPSDSNAVSLVMRRIRKLNVDAGERAKQALAFERTDFDQVRSLMENSDRCQDIRNLAFLGIAYNTLLRIAEIARIRVKDISRTDGGRMLIHIGRTKTLVSTAGVEKALSLGVTKLVERWISVSGVADDPNNYLFCRVRKNGVAAPSATSQLSTRALEGIFEATHRLIYGAKDDSGQRYLAWSGHSARVGAARDMARAGVSIPEIMQAGGWTNVNIVMNYIRNLDSETGAMVELLEDGD
RFP positive cells of 7000 sorted, Ai14 mouse ES reporter cells, promoter hbb + cmv, replicate 1 [1]: 1600 cells
RFP positive cells of 7000 sorted, Ai14 mouse ES reporter cells, promoter hbb + cmv, replicate 2 [1]: 1650 cells
RFP positive cells of 7000 sorted, Ai14 mouse ES reporter cells, promoter hbb + cmv, replicate 3 [1]: 1700 cells
RFP positive cells of 7000 sorted, Ai14 mouse ES reporter cells, promoter hbb + sp1, replicate 1 [1]: 1500 cells
RFP positive cells of 7000 sorted, Ai14 mouse ES reporter cells, promoter hbb + sp1, replicate 2 [1]: 1530 cells
RFP positive cells of 7000 sorted, Ai14 mouse ES reporter cells, promoter hbb + sp1, replicate 3 [1]: 1610 cells
RFP positive cells of 7000 sorted, Ai14 mouse ES reporter cells, promoter hbb, replicate 1 [1]: 256 cells
RFP positive cells of 7000 sorted, Ai14 mouse ES reporter cells, promoter hbb, replicate 2 [1]: 233 cells
RFP positive cells of 7000 sorted, Ai14 mouse ES reporter cells, promoter hbb, replicate 3 [1]: 284 cells
recombinase activity in mouse ES reporter cells, relative to wild type Cre (% of wild type Cre activity) [1]: 40
RFP positive cells of 7000 sorted, Ai14 mouse ES reporter cells, promoter hbb + cmv, replicate 1 [2]: 0 cells
RFP positive cells of 7000 sorted, Ai14 mouse ES reporter cells, promoter hbb + cmv, replicate 2 [2]: 1 cells
RFP positive cells of 7000 sorted, Ai14 mouse ES reporter cells, promoter hbb + cmv, replicate 3 [2]: 1 cells
RFP positive cells of 7000 sorted, Ai14 mouse ES reporter cells, promoter hbb + sp1, replicate 1 [2]: 1 cells
RFP positive cells of 7000 sorted, Ai14 mouse ES reporter cells, promoter hbb + sp1, replicate 2 [2]: 0 cells
RFP positive cells of 7000 sorted, Ai14 mouse ES reporter cells, promoter hbb + sp1, replicate 3 [2]: 0 cells
RFP positive cells of 7000 sorted, Ai14 mouse ES reporter cells, promoter hbb, replicate 1 [2]: 0 cells
RFP positive cells of 7000 sorted, Ai14 mouse ES reporter cells, promoter hbb, replicate 2 [2]: 0 cells
RFP positive cells of 7000 sorted, Ai14 mouse ES reporter cells, promoter hbb, replicate 3 [2]: 1 cells
RFP positive cells of 7000 sorted, Ai14 mouse ES reporter cells, promoter hbb + cmv, replicate 1 [3]: 1 cells
RFP positive cells of 7000 sorted, Ai14 mouse ES reporter cells, promoter hbb + cmv, replicate 2 [3]: 2 cells
RFP positive cells of 7000 sorted, Ai14 mouse ES reporter cells, promoter hbb + cmv, replicate 3 [3]: 1 cells
RFP positive cells of 7000 sorted, Ai14 mouse ES reporter cells, promoter hbb + sp1, replicate 1 [3]: 1 cells
RFP positive cells of 7000 sorted, Ai14 mouse ES reporter cells, promoter hbb + sp1, replicate 2 [3]: 1 cells
RFP positive cells of 7000 sorted, Ai14 mouse ES reporter cells, promoter hbb + sp1, replicate 3 [3]: 2 cells
RFP positive cells of 7000 sorted, Ai14 mouse ES reporter cells, promoter hbb, replicate 1 [3]: 0 cells
RFP positive cells of 7000 sorted, Ai14 mouse ES reporter cells, promoter hbb, replicate 2 [3]: 1 cells
RFP positive cells of 7000 sorted, Ai14 mouse ES reporter cells, promoter hbb, replicate 3 [3]: 0 cells
recombinase activity in vitro (loxP excision, gel) (Cre-B2): preserving activity in the Cre-A3+Cre-B2 heterotetramer
recombinase activity in vitro on six loxP/M7 hybrid substrates (gel) (Cre-B2-C2#4): In vitro assays confirmed that the heterotetrameric Cre is more specific in recombining different arrangement of loxP/M7 sites
recombinase activity in vitro (loxP excision, gel): This mutation successfully disrupted formation of Cre-A2 homotetramers

B2: Cre-A1 (protein)
chain: MSNLLTVHQNLPALPVDATSDEVRRNLMRMFELRRAFSEHTWKMLLSVCRSWAAWCKLNNRKWFPAEPEDVRDYLLYLQARGLAVKTIQQHLGQLNMLHRRSGLPRPSDSNAVSLVMRRIRKENVDAGERAKQALAFERTDFDQVRSLMENSDRCQDIRNLAFLGIAYNTLLRIAEIARIRVKDISRTDGGRMLIHIGRTKTLVSTAGVEKALSLGVTKLVERWISVSGVADDPNNYLFCRVRKNGVAAPSATSQLSTRALEGIFEATHRLIYGAKDDSGQRYLAWSGHSARVGAARDMARAGVSIPEIMQAGGWTNVNIVMNYIRNLDSETGAMVRLLEDGD
RFP positive cells of 7000 sorted, Ai14 mouse ES reporter cells, promoter hbb + cmv, replicate 1 [4]: 3850 cells
RFP positive cells of 7000 sorted, Ai14 mouse ES reporter cells, promoter hbb + cmv, replicate 2 [4]: 3530 cells
RFP positive cells of 7000 sorted, Ai14 mouse ES reporter cells, promoter hbb + cmv, replicate 3 [4]: 3690 cells
RFP positive cells of 7000 sorted, Ai14 mouse ES reporter cells, promoter hbb + sp1, replicate 1 [4]: 3750 cells
RFP positive cells of 7000 sorted, Ai14 mouse ES reporter cells, promoter hbb + sp1, replicate 2 [4]: 3420 cells
RFP positive cells of 7000 sorted, Ai14 mouse ES reporter cells, promoter hbb + sp1, replicate 3 [4]: 3500 cells
RFP positive cells of 7000 sorted, Ai14 mouse ES reporter cells, promoter hbb, replicate 1 [4]: 414 cells
RFP positive cells of 7000 sorted, Ai14 mouse ES reporter cells, promoter hbb, replicate 2 [4]: 378 cells
RFP positive cells of 7000 sorted, Ai14 mouse ES reporter cells, promoter hbb, replicate 3 [4]: 391 cells
RFP positive cells of 7000 sorted, Ai14 mouse ES reporter cells, promoter hbb + cmv, replicate 1 [5]: 5870 cells
RFP positive cells of 7000 sorted, Ai14 mouse ES reporter cells, promoter hbb + cmv, replicate 2 [5]: 6030 cells
RFP positive cells of 7000 sorted, Ai14 mouse ES reporter cells, promoter hbb + cmv, replicate 3 [5]: 6360 cells
RFP positive cells of 7000 sorted, Ai14 mouse ES reporter cells, promoter hbb + sp1, replicate 1 [5]: 5700 cells
RFP positive cells of 7000 sorted, Ai14 mouse ES reporter cells, promoter hbb + sp1, replicate 2 [5]: 6120 cells
RFP positive cells of 7000 sorted, Ai14 mouse ES reporter cells, promoter hbb + sp1, replicate 3 [5]: 5990 cells
RFP positive cells of 7000 sorted, Ai14 mouse ES reporter cells, promoter hbb, replicate 1 [5]: 1120 cells
RFP positive cells of 7000 sorted, Ai14 mouse ES reporter cells, promoter hbb, replicate 2 [5]: 1210 cells
RFP positive cells of 7000 sorted, Ai14 mouse ES reporter cells, promoter hbb, replicate 3 [5]: 1320 cells
recombinase activity in vitro (loxP excision, gel) (Cre-B1): the combined pair of redesigned mutants was active (Cre-A1+Cre-B1
recombinase activity in vitro (loxP excision, gel): one of the mutants (Cre-A1) was active individually
